Data from patent US7135326B2, “UDP-glucosyltransferases” (E. I. du Pont de Nemours and Company, priority 2002, dated 2006).
Values belong to the molecule of their own block, whether it stands above or below them.

Legend:
Grape GT = assay: Substrate specificity of the purified recombinant Grape GT, HPLC analysis of glucose ester formation; format: biochemical, Vitis sp.; conditions: relative to pHBA = 100, 10 mM test substrate, 0.0467 μM purified Grape GT, 15 min, 25° C.
Description: To rule out the possibility that the Grape GT can also attach glucose to the hydroxyl group of pHBA, the products of the in vitro enzyme reaction were directly analyzed by reverse phase HPLC. […] Following a 1-min incubation period at 25° C., the reactions were terminated by the addition of an equal volume of 0.2 N HCl. […] The column was developed at 1 mL/min with a linear gradient of 10–50% Buffer B that was generated over a 20-min period, and absorbance was monitored at 254 nm. […] To test this hypothesis, Applicants' decided to examine the substrate specificity of the Grape GT in greater detail. […] Following a 15-min incubation period at 25° C., the reactions were quenched with an equal volume of 0.3 M HCl and the entire reaction mixture was analyzed by HPLC as described above in Example 6. The products of the various reactions were identified using authentic chemical standards. The retention times and extinction coefficients of these compounds were determined using the same column conditions. […] Regardless of substrate, the purified recombinant Grape GT only catalyzed the formation of glucose esters, which in all cases co-migrated precisely with the authentic compounds. […] Since the glucose ester of the latter compound is the precursor for the synthesis of simple and complex tannins that are extremely abundant in grapes, it is possible that gallic acid is a physiological substrate of the Grape GT. The data shown in Table 3 make it clear that although the Grape GT glucosylated mHBA (3-hydroxybenzoic […]) at a reasonable rate, product formation with oHBA (2-hydroxybenzoic acid) was not observed.

[1] = test system: Arabidopsis thaliana glucosyltransferase UGT84A1 (84A1, GT 3, SEQ ID NO:8); conditions: 20° C., pH 6; calculated from Vmax of Lim et al. 2001; cited from earlier work
[2] = Ratio of enzyme activity with pHBA versus sinapic acid (spectrophotometric assays); format: biochemical; conditions: for times more active with sinapic acid than pHBA / pHBA/SA ratio of enzyme activity: crude extract; for Ratio of Activity pHBA/SA: Table 4, cell-free extracts, 10 mM pHBA or sinapic acid, 25° C.
Description: (§1) The second assay is based on the increase in absorbance at 368 nm that accompanies the formation of the glucose ester of sinapic acid. The experimental conditions were the same as those described above, but the test substrate was sinapic acid and product formation was calculated using an extinction coefficient of 5,570 M^−1 that was obtained with the authentic chemically synthesized compound under identical conditions.

[3] = Continuous spectrophotometric UDP-glucosyltransferase assay, formation of glucose ester of sinapic acid at 368 nm, E. coli cell-free extracts; format: biochemical; conditions: crude extract, 10 mM UDP-glucose, pH 7.3, 25° C.; for initial rate of product formation, 1 mM SA: 1 mM sinapic acid; for initial rate of product formation, 5 mM SA: 5 mM sinapic acid; for initial rate of product formation, 10 mM SA: 10 mM sinapic acid
Description: (§2) For protein production, the resulting recombinant strains were grown at 22° C. in 50 mL of LB media that contained kanamycin (50 μg/mL). At an A600 nm of ˜0.6, isopropyl-1-thio-β-D-galactopyranoside was added to a final concentration of 0.2 mM. Following a 22-h induction period at the same temperature, the cells were harvested by centrifugation and stored at −80° C. for subsequent manipulation as described below.
(§3) The frozen cell pellets were resuspended in 1.0 mL of a solution containing 100 mM Tris-HCl (pH 7.7), 5 mM MgSO4, 1 mM dithiothreitol, 0.03 mg/mL DNAse I, 0.5 mM phenylmethanesulfonyl fluoride, and passed once through a French pressure cell at 20,000 psi. Debris was removed by centrifugation (43,000×g, 60 min), and the resulting cell-free extracts, containing ˜15 mg of protein per mL, were supplemented with 5% glycerol and stored at −80° C. for subsequent measurements of enzyme activities. Protein concentrations were determined by the Bradford Method using bovine serum albumin as a standard.
as §1

[4] = Continuous spectrophotometric UDP-glucosyltransferase assay, formation of pHBA glucose ester at 304 nm, E. coli cell-free extracts; format: biochemical; conditions: crude extract, 10 mM UDP-glucose, pH 7.3, 25° C.
Description: as §2, §3

Molecule: O=C(O)c1ccccc1O [OHBA, o-Hydroxybenzoic acid]
Relative Rate of product formation (Grape GT): 0

Molecule: O=C(O)c1cc(O)c(O)c(O)c1 [Gallic acid, 3,4,5-trihydoxybenzoic acid]
Relative Rate of product formation (Grape GT): 64

Molecule: COc1cc(/C=C/C(=O)O)ccc1O [Ferrulic acid, ferrulic acid]
Relative Rate of product formation (Grape GT): 16

Molecule: O=C(O)/C=C/c1ccc(O)cc1 [p-hydroxycinnamic acid]
turnover number with p-hydroxycinnamic acid [1]: ~0.70 s⁻¹

Molecule: O=C(O)c1cccc(O)c1 [MHBA, m-Hydroxybenzoic acid]
Relative Rate of product formation (Grape GT): 47

Molecule: O=C(O)C=Cc1ccc(O)cc1 [PHCA, 4-hydroxycinnamic acid]
Relative Rate of product formation (Grape GT): 56

Molecule: O=C(O)/C=C/c1ccc(O)c(O)c1 [Caffeic acid, caffeic acid]
Relative Rate of product formation (Grape GT): 25

Molecule: COc1cc(/C=C/C(=O)O)cc(OC)c1O [Sinapic acid]
Relative Rate of product formation (Grape GT): 10

times more active with sinapic acid than pHBA ([2]; 10 mM substrate): at least 50 times | Ratio of Activity pHBA/SA [2]: 0.018
B1: SA-GT: Brassica napus UDP-glucosyltransferase (GenBank Accession No. AF287143), SEQ ID NO:4 (protein, listed as Brassica napus)
chain: MELSSSPLPPHVMLLSFPGQGHVNPLLRLGKLLASKGLLVTFVTTESWGKKMRTANKIQDRALKPIGKGYLRFDFFDDGLPEDDDASRTNLTILRPQLELVGQQEIKNLVKRYKEVMKQPVTCLINNPFVSWVCDVAEDLQIPCAVLWVQSCACLASYYYYHHKLVDFPTETDPKIDVQIPCMPVLKHDEIPSFIHPFSPYSGLREVIIDQIKRLHKPFVVLIDTFYSLEKDIIDHMTNLSRTGVVRPLGPLYKMAKTLICDDIKGDMSETRDDCMEWLDSQPVSSVVYISFGTMAYVTQEQISEIAFGVLNAGVSFLWVIRQQELGVNKERHVLPEELKGKGKVVEWCSQEKVLAHPSVVCFVTHCGWNSTMEALSSGVPTVCFPQWGDQVTDAAYMSDVFKTGVRLSRGETEERVVPREEVAERLREVTKGEKATELKKNALKWKEEAEAAVARRGSSDRNLDEFVEKLCVKHVAKQNGSLNQNGSIQKLLLQKS
pHBA/SA ratio of enzyme activity ([2]; 1 mM substrate): 0.002 | pHBA/SA ratio of enzyme activity ([2]; 5 mM substrate): 0.007 | pHBA/SA ratio of enzyme activity ([2]; 10 mM substrate): 0.018 | initial rate of product formation, 1 mM SA [3]: 118 μM per min | initial rate of product formation, 5 mM SA [3]: 82 μM per min | initial rate of product formation, 10 mM SA [3]: 55.6 μM per min | initial rate of product formation, 1 mM pHBA [4]: 0.20 μM per min | initial rate of product formation, 5 mM pHBA [4]: 0.59 μM per min | initial rate of product formation, 10 mM pHBA [4]: 1.03 μM per min

Ratio of Activity pHBA/SA [2]: 0.141
B2: GT 5: Arabidopsis UDP-glucosyltransferase, GenBank AL161541.2, SEQ ID NO:16 (protein, listed as Arabidopsis thaliana)
chain: MKMESSLPHVMLVSFPGQGHISPLLRLGKIIASKGLIVTFVTTEEPLGKKMRQANNIQDGVLKPVGLGFLRFEFFEDGFVYKEDFDLLQKSLEVSGKREIKNLVKKYEKQPVRCLINNAFVPWVCDIAEELQIPSAVLWVQSCACLAAYYYYHHQLVKFPTETEPEITVDVPFKPLTLKHDEIPSFLHPSSPLSSIGGTILEQIKRLHKPFSVLIETFQELEKDTIDHMSQLCPQVNFNPIGPLFTMAKTIRSDIKGDISKPDSDCIEWLDSREPSSVVYISFGTLAFLKQNQIDEIAHGILNSGLSCLWVLRPPLEGLAIEPHVLPLELEEKGKIVEWCQQEKVLAHPAVACFLSHCGWNSTMEALTSGVPVICFPQWGDQVTNAVYMIDVFKTGLRLSRGASDERIVPREEVAERLLEATVGEKAVELRENARRWKEEAESAVAYGGTSERNFQEFVDKLVDVKTMTNINNVV
pHBA/SA ratio of enzyme activity ([2]; 1 mM substrate): 0.044 | pHBA/SA ratio of enzyme activity ([2]; 5 mM substrate): 0.049 | pHBA/SA ratio of enzyme activity ([2]; 10 mM substrate): 0.141 | initial rate of product formation, 1 mM SA [3]: 5.18 μM per min | initial rate of product formation, 5 mM SA [3]: 9.2 μM per min | initial rate of product formation, 10 mM SA [3]: 5.9 μM per min | initial rate of product formation, 1 mM pHBA [4]: 0.23 μM per min | initial rate of product formation, 5 mM pHBA [4]: 0.45 μM per min | initial rate of product formation, 10 mM pHBA [4]: 0.83 μM per min

times more active with sinapic acid than pHBA ([2]; 10 mM substrate): only about twice as active | Ratio of Activity pHBA/SA [2]: 0.454
B3: GT 3: Arabidopsis UDP-glucosyltransferase, GenBank AL161541.2, SEQ ID NO:8 (protein, listed as Arabidopsis thaliana)
chain: MMFETCPSPNPIHVMLVSFQGQGHVNPLLRLGKLIASKGLLVTFVTTELWGKKMRQANKIVDGELKPVGSGSIRFEFFDEEWAEDDDRRADFSLYIAHLESVGIREVSKLVRRYEEANEPVSCLINNPFIPWVCHVAEEFNIPCAVLWVQSCACFSAYYHYQDGSVSFPTETEPELDVKLPCVPVLKNDEIPSFLHPSSRFTGFRQAILGQFKNLSKSFCVLIDSFDSLEQEVIDYMSSLCPVKTVGPLFKVARTVTSDVSGDICKSTDKCLEWLDSRPKSSVVYISFGTVAYLKQEQIEEIAHGVLKSGLSFLWVIRPPPHDLKVETHVLPQELKESSAKGKGMIVDWCPQEQVLSHPSVACFVTHCGWNSTMESLSSGVPVVCCPQWGDQVTDAVYLIDVFKTGVRLGRGATEERVVPREEVAEKLLEATVGEKAEELRKNALKWKAEAEAAVAPGGSSDKNFREFVEKLGAGVTKTKDNGY
pHBA/SA ratio of enzyme activity ([2]; 1 mM substrate): 0.064 | pHBA/SA ratio of enzyme activity ([2]; 5 mM substrate): 0.268 | pHBA/SA ratio of enzyme activity ([2]; 10 mM substrate): 0.454 | initial rate of product formation, 1 mM SA [3]: 146 μM per min | initial rate of product formation, 5 mM SA [3]: 158 μM per min | initial rate of product formation, 10 mM SA [3]: 143 μM per min | initial rate of product formation, 1 mM pHBA [4]: 9.4 μM per min | initial rate of product formation, 5 mM pHBA [4]: 42.3 μM per min | initial rate of product formation, 10 mM pHBA [4]: 64.9 μM per min
